Test results reported in article PMC12646662.

Columns and labels:
[1] = target: GSDMA; test: Flag IP with mass spectrometry (LFQ); settings: SK-Mel-28 cells; read off a plot
[2] = target: E-cadherin, endogenous in SK-Mel-28 cells; test: Flag IP with mass spectrometry (LFQ); settings: read off a plot

log10 ratio [1]: 2.2 | log10 ratio [2]: -2.5
Substance: Flag-CTNND1 WT, stably expressed in SK-Mel-28 cells (from UniProt O60716) C618S
